# Laboratory results from patent US20240139265A1 (published 2024).
# Biological target: T1, HLA-B*08:01 class I complex (biotinylated heavy chain with beta2-microglobulin) (human)
# T1 construct: Conditional HLA class I complex loaded with a UV-labile peptide that is exchanged for the test peptide
# Assay: UV peptide exchange + HLA class I ELISA; % of Pos control peptide
# Description: The exchange efficiency between the peptide of interest and Pos was analyzed using an HLA class I ELISA.
# The UV control represented UV-irradiation of conditional HLA class I complex in the absence of a rescue peptide. […] The HLA class I ELISA is an enzyme immunoassay based on the detection of beta2-microglobulin (B2M) of (peptide-stabilized) HLA class I complexes. To this end streptavidin was bound onto polystyrene microtiter wells. […] Non-bound material was removed by washing. Subsequently, horseradish peroxidase (HRP)-conjugated antibody to human B2M was added. […] In the latter case B2M was removed during the washing step. After removal of non-bound HRP conjugate by washing, a substrate solution was added to the wells. A coloured product formed in proportion to the amount of intact HLA complex present in the samples. After the reaction was terminated by the addition of a stop solution, absorbance was measured in a microtiter plate reader.
row,Binder,exchange rate with Pos peptide
1,QLIAMDSAI (Synthetic 9-mer) [P22 9-mer neoantigen peptide QLIAMDSAI (SLC45A3-ELK4 fusion)],3.9%
2,FLFLLLPLS (Synthetic 9-mer) [P87 9-mer neoantigen peptide FLFLLLPLS (AR-Intron splice variant)],3.1%
3,FPVGAEGTF (Synthetic 9-mer) [P27 9-mer neoantigen peptide FPVGAEGTF (FAM126B-ORC2 fusion)],6.4%
4,RAVRRMNTF (Synthetic 9-mer) [P17 9-mer neoantigen peptide RAVRRMNTF (MSMB-NOCA4 fusion)],9%
5,CPMSRLRLA (Synthetic 9-mer) [P46 9-mer neoantigen peptide CPMSRLRLA (TP53 (R213D) frameshift)],14.5%
6,IQYSCMGLM (Synthetic 9-mer) [P50 9-mer neoantigen peptide IQYSCMGLM (AR (W742C) missense)],4.7%
7,STRRAVRRM (Synthetic 9-mer) [P16 9-mer neoantigen peptide STRRAVRRM (MSMB-NCOA4 fusion)],6.2%
8,RVGNCKHLK (Synthetic 9-mer) [P82 9-mer neoantigen peptide RVGNCKHLK (AR-V7 splice variant)],1.4%
9,NMVENGCYL (Synthetic 9-mer) [P59 9-mer neoantigen peptide NMVENGCYL (FOXA1 (F254V) missense)],5.5%
10,IVWWCPMSR (Synthetic 9-mer) [P98 9-mer neoantigen peptide IVWWCPMSR (TP53 (R213D) frameshift)],2.4%
11,LLERNSFEV (Synthetic 9-mer) [P73 9-mer neoantigen peptide LLERNSFEV (TP53 (G266E) missense)],2.6%
12,FFKRAAEGF (Synthetic 9-mer) [P77 9-mer neoantigen peptide FFKRAAEGF (AR-V3 splice variant)],3.4%
13,RAKCKFSIL (Synthetic 9-mer) [P56 9-mer neoantigen peptide RAKCKFSIL (SPOP(F102C) missense)],38%
14,GVLRRLLCR (Synthetic 9-mer) [P37 9-mer neoantigen peptide GVLRRLLCR (TSTD1-F11R fusion)],3.3%
15,LMAQRLLLR (Synthetic 9-mer) [P97 9-mer neoantigen peptide LMAQRLLLR (FOXRED2-TXN2 fusion)],2.7%
16,NSKMALNSL (Synthetic 9-mer) [P35 9-mer neoantigen peptide NSKMALNSL (TMPRSS2-ERG fusion)],13.7%
17,CYLGRQKRF (Synthetic 9-mer) [P61 9-mer neoantigen peptide CYLGRQKRF (FOXA1.p.R261G missense)],3.6%
18,YLRRQKRLK (Synthetic 9-mer) [P60 9-mer neoantigen peptide YLRRQKRLK (FOXA1.p.F266L missense)],10.2%
19,HVPKILSGK (Synthetic 9-mer) [P58 9-mer neoantigen peptide HVPKILSGK (AR (Q903H) missense)],5.3%
20,IPVLTRWPL (Synthetic 9-mer) [P19 9-mer neoantigen peptide IPVLTRWPL (TMEM222-LOC644961 fusion)],14.5%
